In paper PMC6441041:

Key:
[1] = target: SH1 penton protein VP9 (haloarchaeal virus SH1); assay: cryo-EM structure; asymmetric (C1) localised reconstruction of the whole 5-fold vertex of spike-containing virions, overall 7.2 Å
[2] = target: SH1 membrane-associated protein VP12 (haloarchaeal virus SH1); assay: cryo-EM structure; purified SH1 virions with and without spikes, data merged; icosahedral and block-based/localised reconstruction of the capsid, 3.8 Å; 20 mM Tris-HCl pH 7.2, 1 M NaCl, 10 mM MnCl2

Substance: SH1 penton protein VP9 (natural protein)
- stoichiometry N [1]: 5

Substance: SH1 membrane-associated protein VP12 (natural protein)
- stoichiometry N [2]: 5
